Measurements as given in paper PMC3279587.

B1: N11 (dsDNA)
DNA 1: GTCTGGCAGTTAATTCGGCTTAGTAGC
DNA 2: GCTACTAAGCCGAATTAACTGCCAGAC
B2: N9 (dsDNA)
DNA 1: GTCTGGCTCCTAATTAGTTCGATTAGC
DNA 2: GCTAATCGAACTAATTAGGAGCCAGAC
B3: N25 (dsDNA)
DNA 1: GTCTGGCCATTAATGATATCAATTAGC
DNA 2: GCTAATTGATATCATTAATGGCCAGAC
B4: N30 (dsDNA)
DNA 1: GTCTGGCCTCTAATTACGCCTAATTGC
DNA 2: GCAATTAGGCGTAATTAGAGGCCAGAC
B5: N2 (dsDNA)
DNA 1: GTCTGGCAATTAATATATTGCATTTGC
DNA 2: GCAAATGCAATATATTAATTGCCAGAC
B6: Lmo1 (dsDNA)
DNA 1: GTAATGAATTGATTTAATTAACAGGGGAGTCTGA
DNA 2: TCAGACTCCCCTGTTAATTAAATCAATTCATTAC

How the values were obtained:
Test in all cases: EMSA
[1] = molecular target: T1, His-Arx 214-430 (Mus musculus, UniProt O35085 216-432)
T1 sequence (O35085 216-432): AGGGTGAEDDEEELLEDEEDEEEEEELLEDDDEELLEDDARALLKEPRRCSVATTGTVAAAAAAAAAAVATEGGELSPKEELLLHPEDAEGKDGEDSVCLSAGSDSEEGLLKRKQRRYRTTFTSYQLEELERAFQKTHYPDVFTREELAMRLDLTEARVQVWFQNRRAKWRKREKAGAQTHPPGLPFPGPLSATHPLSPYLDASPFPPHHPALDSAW

[2] = molecular target: T2, GST-Arx 214-430 (Mus musculus, UniProt O35085 216-432)
T2 sequence (O35085 216-432): as above

[3] = molecular target: T3, Sumo-Arx (full-length) (Mus musculus, UniProt O35085 1-564)
T3 sequence (O35085 whole entry): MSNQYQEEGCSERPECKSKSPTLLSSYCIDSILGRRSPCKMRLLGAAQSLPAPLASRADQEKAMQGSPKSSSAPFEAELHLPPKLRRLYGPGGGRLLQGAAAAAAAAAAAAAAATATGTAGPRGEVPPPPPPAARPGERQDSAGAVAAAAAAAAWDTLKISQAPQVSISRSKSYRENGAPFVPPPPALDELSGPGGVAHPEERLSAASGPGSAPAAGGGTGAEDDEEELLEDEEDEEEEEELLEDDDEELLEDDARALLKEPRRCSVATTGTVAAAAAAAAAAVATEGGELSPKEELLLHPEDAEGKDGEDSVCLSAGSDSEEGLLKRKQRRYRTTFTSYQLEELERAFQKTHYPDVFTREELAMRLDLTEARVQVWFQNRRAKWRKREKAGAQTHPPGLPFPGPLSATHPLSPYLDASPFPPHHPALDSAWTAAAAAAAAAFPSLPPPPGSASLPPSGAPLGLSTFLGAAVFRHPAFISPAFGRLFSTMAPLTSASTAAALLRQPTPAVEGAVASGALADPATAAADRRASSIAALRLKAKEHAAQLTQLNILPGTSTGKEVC

[4] = molecular target: T1, His-Arx 214-430; remark: listed apart in the source
[5] = molecular target: T2, GST-Arx 214-430; remark: listed apart in the source
[6] = molecular target: GST-Arx 286-430 (Mus musculus, UniProt O35085 288-432)
GST-Arx 286-430, sequence (O35085 288-432): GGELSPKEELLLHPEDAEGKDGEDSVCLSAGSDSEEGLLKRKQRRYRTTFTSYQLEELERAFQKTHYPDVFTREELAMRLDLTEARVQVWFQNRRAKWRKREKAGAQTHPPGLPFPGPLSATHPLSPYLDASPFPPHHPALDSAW

[7] = molecular target: T3, Sumo-Arx (full-length); remark: listed apart in the source
[8] = molecular target: GST-Arx 286-430 L343Q (Mus musculus, UniProt O35085 288-432, L345Q)
GST-Arx 286-430 L343Q, sequence (O35085 288-432 L345Q): as the sequence (O35085 288-432) above, with L58Q counted along it

Row | Binder | binding result [1] | binding result [2] | binding signal [3] | binding signal [4] | binding signal [5] | binding signal [6] | binding result [7] | binding result [8]
1 | B1 | no binding | no binding | 100 % of strongest probe for this protein | – | – | – | – | –
2 | B2 | – | – | 17 % of strongest probe for this protein | 97 % of strongest probe for this protein | 100 % of strongest probe for this protein | 95 % of strongest probe for this protein | – | –
3 | B3 | – | – | – | 46 % of strongest probe for this protein | 33.6 % of strongest probe for this protein | 81.6 % of strongest probe for this protein | no binding | –
4 | B4 | – | – | 38 % of strongest probe for this protein | 100 % of strongest probe for this protein | 86 % of strongest probe for this protein | 100 % of strongest probe for this protein | – | –
5 | B5 | no binding | no binding | – | – | – | – | no binding | –
6 | B6 | – | – | – | – | – | – | – | no binding
